Four molecules from patent publication US20220363761A1 (MERUS N V, published 2022) can be followed below.

In assay [1] the target is human PD-1 (expressed on cells) (human, UniProt Q15116 25-288). As to the kind of experiment: cell-based or functional assay.
Assay [2] concerns the target T1, human LAG-3 (expressed on 293FF cells) (human, UniProt P18627 23-525).
T1 construct: whole, on cells; also called CD223
T1 sequence (looked up): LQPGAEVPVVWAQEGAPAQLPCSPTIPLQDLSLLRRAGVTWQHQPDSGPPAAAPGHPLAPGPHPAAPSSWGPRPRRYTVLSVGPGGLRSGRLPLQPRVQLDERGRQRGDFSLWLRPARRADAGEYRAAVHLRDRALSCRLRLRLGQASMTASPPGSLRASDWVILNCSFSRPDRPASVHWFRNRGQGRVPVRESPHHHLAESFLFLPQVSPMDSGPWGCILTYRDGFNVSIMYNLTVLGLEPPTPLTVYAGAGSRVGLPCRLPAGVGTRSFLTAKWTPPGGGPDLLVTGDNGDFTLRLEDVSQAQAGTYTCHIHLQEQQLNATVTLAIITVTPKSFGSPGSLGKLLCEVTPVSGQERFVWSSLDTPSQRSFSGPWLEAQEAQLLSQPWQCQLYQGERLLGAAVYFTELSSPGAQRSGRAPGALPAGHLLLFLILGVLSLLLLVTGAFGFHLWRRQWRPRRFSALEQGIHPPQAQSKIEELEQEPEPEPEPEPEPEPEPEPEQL
Description: FACS on 293FF cells stably transfected with human LAG-3. How it is done:
(§1) The binding of bispecific antibodies was analyzed by FACS using cell lines stably transfected with human LAG-3 or rhesus LAG-3, or transiently transfected with human PD-1 or cynomolgus PD-1. […] IgG specific binding was measured by FACS using a 8-step, 5-fold dilution starting at 50 ug/ml. A goat-anti-human PE was used as secondary detection antibody. Cells w/o staining or only secondary detection antibody were included as negative assay controls.

In assay [3] the target is cynomolgus PD-1 (expressed on 293FF cells) (cynomolgus, UniProt B0LAJ3 25-288). Description: FACS on 293FF cells transiently transfected with cynomolgus PD-1. How it is done:
as §1

Chain of cynomolgus PD-1 (expressed on 293FF cells) (B0LAJ3 entry or part of it limits assumed): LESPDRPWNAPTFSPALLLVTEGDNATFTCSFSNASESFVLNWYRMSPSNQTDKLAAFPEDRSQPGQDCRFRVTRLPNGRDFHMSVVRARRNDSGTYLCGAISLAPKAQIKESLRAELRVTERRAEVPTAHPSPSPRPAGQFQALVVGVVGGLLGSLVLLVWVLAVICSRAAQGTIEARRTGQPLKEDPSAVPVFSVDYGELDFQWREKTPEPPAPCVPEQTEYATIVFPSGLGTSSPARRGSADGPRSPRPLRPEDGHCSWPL
Chain of human PD-1 (expressed on cells) (Q15116 25-288): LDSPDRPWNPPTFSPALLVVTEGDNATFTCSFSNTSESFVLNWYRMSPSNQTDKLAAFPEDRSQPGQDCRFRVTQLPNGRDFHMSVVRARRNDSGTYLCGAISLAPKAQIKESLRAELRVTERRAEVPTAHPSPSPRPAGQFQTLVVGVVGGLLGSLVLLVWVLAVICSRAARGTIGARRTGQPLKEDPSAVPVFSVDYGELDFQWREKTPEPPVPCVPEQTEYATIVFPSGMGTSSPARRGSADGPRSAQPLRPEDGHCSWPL

B1: PD-1xLAG-3 bispecific antibody SEQ ID NO: 1 × SEQ ID NO: 16 (bispecific antibody)
heavy (part 1 of 2) 1: not shown
heavy (part 2 of 2) 1: not shown
heavy (part 1 of 2) 2: QVQLVQSGAEVKKPGASVKVSCKASGYTFTSYGISWVRQAPGQGLEWMGWISAYSGNTNYAQKLQGRVTMTTDTSTSTAYMELRSLRSDDTAVYYCARGSILAAQMWGDIWGQGTLVTVSSASTKGPSVFPLAPSSKSTSGGTAALGCLVKDYFPEPVTVSWNSGALTSGVHTFPAVLQSSGLYSLSSVVTVPSSSLGTQTYICNVNHKPSNTKVDKRV
heavy (part 2 of 2) 2: not shown
light: not shown
notes: IgG1; common light chain; also called PB6; not shown: hinge (IgG1)
Turning to B1, in assay [1], the “AUC relative to positive control, PD-1/LAG-3 reporter assay” value (“AUC relative to positive control” for short) worked out at 194% and the “EC50 (nM) PD-1/LAG-3 reporter assay” value worked out at 17.6 nM. In addition, in assay [2], the binding result was “binds”. Also, the binding result in assay [3] is recorded as “binds”.

B2: PD-1xLAG-3 bispecific antibody SEQ ID NO: 5 × SEQ ID NO: 16 (bispecific antibody)
heavy (part 1 of 2) 1: not shown
heavy (part 2 of 2) 1: not shown
heavy (part 1 of 2) 2: QVQLVQSGAEVKKPGASVKVSCKASGYTFTSYGISWVRQAPGQGLEWMGWISAYSGNTNYAQKLQGRVTMTTDTSTSTAYMELRSLRSDDTAVYYCARGSILAAQMWGDIWGQGTLVTVSSASTKGPSVFPLAPSSKSTSGGTAALGCLVKDYFPEPVTVSWNSGALTSGVHTFPAVLQSSGLYSLSSVVTVPSSSLGTQTYICNVNHKPSNTKVDKRV
heavy (part 2 of 2) 2: not shown
light: not shown
notes: IgG1; common light chain; also called PB18; not shown: hinge (IgG1)
In the case of B2, in assay [1], the “AUC relative to positive control” value is 197% and the “EC50 (nM) PD-1/LAG-3 reporter assay” value was 25.4 nM. Also, the binding result in assay [2] is “binds”. Further, in assay [3], the binding result is listed as “binds”.

B3: PD-1xLAG-3 bispecific antibody SEQ ID NO: 5 × SEQ ID NO: 14 (bispecific antibody)
heavy (part 1 of 2) 1: not shown
heavy (part 2 of 2) 1: not shown
heavy (part 1 of 2) 2: EVQLVQSGSELKKPGASVKVSCKASGYTFTTNALNWVRQAPGQGLEWMGWINTHTGNPTYAQGFIGRFVFSLDTSVSTAYLQIRSLKAEDTAVYYCAREPNWGVYFDYWGQGTLVTVSSASTKGPSVFPLAPSSKSTSGGTAALGCLVKDYFPEPVTVSWNSGALTSGVHTFPAVLQSSGLYSLSSVVTVPSSSLGTQTYICNVNHKPSNTKVDKRV
heavy (part 2 of 2) 2: not shown
light: not shown
notes: IgG1; common light chain; also called PB16; PD-1xLAG-3 bispecific antibody 3; not shown: hinge (IgG1)
As for B3, in assay [1], the “AUC relative to positive control” value is 263% and the “EC50 (nM) PD-1/LAG-3 reporter assay” value is 19.8 nM. The binding result in assay [2] is on record as “binds”. In assay [3], the binding result is listed as “binds”.

B4: PD-1xLAG-3 bispecific antibody SEQ ID NO: 6 × SEQ ID NO: 11 (bispecific antibody)
heavy (part 1 of 2) 1: not shown
heavy (part 2 of 2) 1: not shown
heavy (part 1 of 2) 2: QVQLQESGPGLVRPSETLSLTCTVSGGSISSYSWSWIRQPPGKGLEWIGYIDYSGSTNYNPSLKSRVTISVDTSKTQFSLKLSSVSAADTAVYYCAKDLLYKWNYVEGFDIWGQGTTVTVSSASTKGPSVFPLAPSSKSTSGGTAALGCLVKDYFPEPVTVSWNSGALTSGVHTFPAVLQSSGLYSLSSVVTVPSSSLGTQTYICNVNHKPSNTKVDKRV
heavy (part 2 of 2) 2: not shown
light: not shown
notes: IgG1; common light chain; also called PB7; not shown: hinge (IgG1)
Take B4: in assay [1], the “AUC relative to positive control” value was found to be 215% and the “EC50 (nM) PD-1/LAG-3 reporter assay” value came out at 21.3 nM. In assay [2], the binding result is “binds”. The binding result in assay [3] was “binds”.
